Experimental data taken from US20190111114A1 (BRIGHAM AND WOMEN S HOSPITAL, published 2019).

Molecular target: T1, BCL11A, endogenous, in mouse erythroid (MEL) cells (mouse, UniProt Q9QYE3 1-835, limits assumed)
T1 sequence (looked up): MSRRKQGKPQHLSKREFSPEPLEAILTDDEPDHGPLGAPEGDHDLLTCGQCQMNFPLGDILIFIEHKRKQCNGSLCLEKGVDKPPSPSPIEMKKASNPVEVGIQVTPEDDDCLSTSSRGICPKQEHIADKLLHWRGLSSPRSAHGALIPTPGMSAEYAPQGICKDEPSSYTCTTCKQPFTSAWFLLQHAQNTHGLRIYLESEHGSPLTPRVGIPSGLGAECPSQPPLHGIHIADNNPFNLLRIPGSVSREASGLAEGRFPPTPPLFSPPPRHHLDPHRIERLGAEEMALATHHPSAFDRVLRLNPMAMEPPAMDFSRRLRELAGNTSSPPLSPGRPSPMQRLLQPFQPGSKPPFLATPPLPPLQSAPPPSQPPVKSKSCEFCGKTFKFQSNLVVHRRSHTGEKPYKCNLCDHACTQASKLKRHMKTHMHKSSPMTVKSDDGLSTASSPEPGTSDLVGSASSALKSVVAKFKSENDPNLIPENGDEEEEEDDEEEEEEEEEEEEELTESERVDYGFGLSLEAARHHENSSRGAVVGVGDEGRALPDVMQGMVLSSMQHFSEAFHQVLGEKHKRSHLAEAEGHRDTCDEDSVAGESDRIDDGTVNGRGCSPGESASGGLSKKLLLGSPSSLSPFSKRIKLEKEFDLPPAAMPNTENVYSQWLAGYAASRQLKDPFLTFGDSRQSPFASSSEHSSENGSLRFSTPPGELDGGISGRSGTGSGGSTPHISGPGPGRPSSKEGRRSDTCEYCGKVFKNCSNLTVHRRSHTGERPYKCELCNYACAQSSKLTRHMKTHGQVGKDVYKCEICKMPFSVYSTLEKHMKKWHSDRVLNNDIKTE
Assay: immunoprecipitation of tagged mouse LRF from MEL cells, Western blot
From the text: FKPM values were obtained from RNA-Seq experiments. (B) Validation of Y2H results by IP. […] Protein samples from empty vector-transfected cells served as negative controls. (C) LRF/GATAD2B interaction was validated in mouse erythroleukemia (MEL) cells. Applicants generated a series of expression vectors encoding N- or C-terminally-tagged mouse LRF (mLRF) and performed IP in MEL cells. Applicants could pull-down NuRD components and endogenous LRF protein only when Applicants expressed the LRF tagged at the far C-terminus. Anti-HA antibody could pull down both endogenous and exogenous LRF plus NuRD components (far right lane), while antibody against Flag, which was placed 15 aa upstream of the HA tag, pulled down only exogenous LRF (2nd lane from the left). Although Applicants tested 5 different (2 original and 3 commercially-available) anti-LRF antibodies for IP in mouse cells, none could pull down endogenous mouse LRF protein. Native LRF in the large NuRD complex may be inaccessible to anti-LRF antibodies in mouse cells (a model shown on right). Applicants note that the BCL11A image is from a different membrane. (D) Knockout of LRF or BCL11A was confirmed by Western blot using anti-LRF or -BCL11A antibodies. GAPDH: loading control. (E) Relative copy number of indicated β-globin transcripts was determined by q-PCR, as described in FIG. 8C. […]

B1: mouse LRF tagged at the far C-terminus with Flag and HA (pMX-mCherry-FHC-mLRF), expressed in MEL cells (other, UniProt O88939 1-569, looked up)
chain: MAGGVDGPIGIPFPDHSSDILSGLNEQRTQGLLCDVVILVEGREFPTHRSVLAACSQYFKKLFTSGAVVDQQNVYEIDFVSAEALTALMDFAYTATLTVSTANVGDILSAARLLEIPAVSHVCADLLERQILAADDVGDASQPDGAGPTDQRNLLRAKEYLEFFRSNPMNSLPPTAFPWSGFGAPDDDLDATKEAVAAAVAAVAAGDCNGLDFYGPGPPADRPPAGDGDEGDSTPGLWPERDEDAPPGGLFPPPTAPPATTQNGHYGRAGAGTGEEEAAALSEAAPEPGDSPGFLSGAAEGEDGDAADVDGLAASTLLQQMMSSVGRAGDSDEESRTDDKGVMDYYLKYFSGAHEGDVYPAWSQKGEKKIRAKAFQKCPICEKVIQGAGKLPRHIRTHTGEKPYECNICKVRFTRQDKLKVHMRKHTGEKPYLCQQCGAAFAHNYDLKNHMRVHTGLRPYQCDSCCKTFVRSDHLHRHLKKDGCNGVPSRRGRKPRVRGVPPDVPAGAGAPPGLPDAPRNGQEKHFKDEEEDEEEASPDGSGRLNVAGSGGDDGAGGPAVATAEGNFAT
notes: also called exogenous LRF; not shown: Flag and HA tags at the 3' end of the cDNA, Flag placed 15 aa upstream of the HA tag
binding result: no binding
